The record followed here is patent US20190270793A1.

For the experiment, the target named is tau seeds in spinal cord homogenates of P301S transgenic mice (aggregated transgenic human tau) (human), P10636. In words: cell-based or functional assay.
tau seeds in spinal cord homogenates of P301S transgenic mice (aggregated transgenic human tau) (human), P10636, sequence (P10636 other isoform, or with tags, fused parts or gaps P301S P301S): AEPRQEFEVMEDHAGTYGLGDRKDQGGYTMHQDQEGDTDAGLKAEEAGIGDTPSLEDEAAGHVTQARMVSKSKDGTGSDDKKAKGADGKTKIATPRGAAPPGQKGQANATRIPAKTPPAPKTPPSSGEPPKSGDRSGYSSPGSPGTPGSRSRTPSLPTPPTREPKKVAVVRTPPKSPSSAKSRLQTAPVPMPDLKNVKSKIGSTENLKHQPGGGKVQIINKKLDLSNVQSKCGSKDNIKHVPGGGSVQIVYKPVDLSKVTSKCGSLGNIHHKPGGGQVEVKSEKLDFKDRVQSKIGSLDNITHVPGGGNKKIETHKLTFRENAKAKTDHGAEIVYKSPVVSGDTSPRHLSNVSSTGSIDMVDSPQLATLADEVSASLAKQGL

B1: PT82 mAb, recombinantly expressed (mouse IgG2a/kappa) (antibody, V domains shown)
VH: EVKLEESGGGLVQPGGSMKLSCVASGFTFSNYWMNWIRQSPEKGLEWVAQIRLQSDNYATRYAESVKGRFTISRDESKTSVYLQMNNLRTEDTGIYYCTGGTTYWGQGTLVTVSA
VL: DIVMTQSQKFMSTSVGDRVSITCKASQNVGTAVAWYQQKPGQSPKLLIYSASIRYTGVPDRFTGSGSGTDFTLTINYMQSEDLADYFCQQFSSYPYTFGGGTKLEIK
On to B1, for which the Tau aggregate induction (K18 aggregate formation, FRET-positive HEK cells counted by FACS) came to 3 nM.
